Reference: the supplement of paper PMC12042874
± gives the uncertainty stated by the source.

assay: amyloid nucleation score (Sup35N fusion, yeast selection) (log enrichment); library NNK1; higher = more nucleation; inactive = no reads after selection
Procedure, shortened: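 The nucleation score is a DiMSum log enrichment of output over input reads, centred on the mode score of non-aggregating sequences. Sequences under 100 input reads were excluded, and reads came from Illumina sequencing of plasmid inserts. Psi-negative yeast expressing Sup35N fused to peptides of 20 random codons were induced with 100 μM copper sulfate for 24 hours and grown 7 days at 30°C on medium lacking adenine and uracil. Random libraries had three technical output replicates.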

In order of rising amyloid nucleation score:
1. IDVFEITSKSFAARGAQFVH  -1.97 ± 1.3
2. PLVKGIHSNPRTYTTMYYSY  -1.93 ± 2.7
3. EHLRFKKANNVLYVNESSSV  -1.59 ± 1.3
4. VGLFVFSMSLGLAD  -1.55 ± 0.51
5. QDIARPRYIPSNNRKKTREP  -1.35 ± 1.9
6. FTCKWRVGFWTPVSDPV  -1.27 ± 0.7
7. CSRTMTWYP  -1.14 ± 1.3
8. VFPALLNISRLISKTQCSQV  -0.978 ± 0.99
9. EGQTGLLVWYGSHSVRLGNF  -0.957 ± 2.4
10. VLNLIRRGIWGYHHEMGTG  -0.947 ± 0.81
11. NNFSCMDHILSMVKLWDVFG  -0.847 ± 0.59
12. RLYPQYLNFKVCKFGSLDGG  -0.836 ± 0.31
13. WPCKAFFSSAGLRYGVNLA  -0.833 ± 0.9
14. DTINAGWSHLEARCLRFLHV  -0.795 ± 0.38
15. IYRFQWPWDMLMYCWTLMSV  -0.776 ± 0.93
16. NTQTFEAFSKSFMDLIVRRF  -0.735 ± 1.2
17. FTLMGNSCHRGLV  -0.66 ± 0.85
18. NSVVRVIKRSWRTVVLLHDR  -0.621 ± 1.4
19. WLESLARDSCSRFIDLHEWG  -0.615 ± 1.5
20. CFNMFT  -0.607 ± 0.76
21. VCKGVYNMPCSTPNLYDSAG  -0.563 ± 0.79
22. EGDYNGGCCQGLLNCQ  -0.562 ± 0.56
23. LPSVESLHRTTSCVYF  -0.561 ± 1.2
24. CRAGLVMSGWCRWFAQWMDS  -0.551 ± 0.59
25. YRSSVL  -0.514 ± 0.29
26. YRCCFLKNNPAWVQFSLRLR  -0.436 ± 0.36
27. YCSHMLRMYFSEDRPLAQLM  -0.399 ± 0.74
28. IFSFNMQDN  -0.363 ± 1.2
29. ILVGTWSLGSRAVEGNNWDH  -0.357 ± 0.49
30. FTFEFVNHMASVYRSLMYER  -0.356 ± 1.1
31. RHLRVTFNSLSWRKMKAGVV  -0.314 ± 0.86
32. ARGHGFQPVGPLGSVILMAR  -0.302 ± 0.68
33. TRKLFTFMLDRMYLMVGRRL  -0.294 ± 0.6
34. YLFRLVTVFNVVKATLVVTV  -0.289 ± 0.92
35. SPFDKIVAHGSRLML  -0.274 ± 0.64
36. FYGQRPKMLCPTRAEDLTKA  -0.269 ± 0.88
37. VRGHKWVAWNWMRVARAEQE  -0.257 ± 0.99
38. RRTLSSGVSLYCYPKLGVAR  -0.24 ± 0.53
39. GPFSDVAGQKVRCGRLVATR  -0.212 ± 0.66
40. TDRMGIQCGRVSLRSRYIRC  -0.198 ± 0.87
41. DWANSTDFV  -0.195 ± 0.18
42. KDIYKRFFWYYSKKVCGYGA  -0.172 ± 0.25
43. FHIQEANIFRE  -0.17 ± 0.24
44. ECCWLRVTRLGLWDDVVHSE  -0.163 ± 0.33
45. WMLHMASGGTLCEEASVLVV  -0.148 ± 0.55
46. HVCEGEVVR  -0.135 ± 0.37
47. NCYGYVEKWWGVCTNDPLGR  -0.133 ± 0.25
48. GGGGNVGGFFMWCSVYSAGV  -0.105 ± 0.96
49. CPVMA  -0.094 ± 0.27
50. PSGTQCTAE  -0.047 ± 0.65
51. SSGVFTSI  -0.042 ± 0.66
52. RSRLLSFGVNGGWYIKMLIS  -0.028 ± 0.61
53. RSRNSPTR  -0.027 ± 0.37
54. SHADVR  -0.027 ± 0.83
55. KLFSWADHGGEGFEWMQLTT  -0.026 ± 0.3
56. EKVILHANCFCITMNRMLYH  -0.015 ± 0.39
57. NGTWYILSQASFFYELDAYC  -0.012 ± 0.43
58. MSRIVF  -0.003 ± 0.71
59. IRGLLRFL  0.007 ± 0.35
60. YMKLRCMK  0.019 ± 0.6
61. MRIPVRLVV  0.027 ± 0.54
62. TKQFEPFCLRLSVVMLLLQE  0.034 ± 0.45
63. NVDFTSYMLDMM  0.042 ± 0.41
64. SHYNNNHSAGWLLQLFTMAC  0.05 ± 0.88
65. RSPHVAGYNMKAGSDRSNIT  0.052 ± 0.26
66. AGSEVFEK  0.073 ± 0.32
67. FVKRF  0.073 ± 0.4
68. QANVDCNVHPVTRML  0.085 ± 0.46
69. SLVLRRLYEVSVTCTAGNAW  0.094 ± 0.98
70. YFCILGSNDSNRIGWPRRST  0.101 ± 0.42
71. KSYLLGDGTFNSCTW  0.107 ± 0.69
72. VSLINRRYCPATVFGF  0.117 ± 0.4
73. YSLSRCSSEDMSYVYWCSRS  0.119 ± 0.32
74. WVWDGDIGGWNVKPFHRVRG  0.121 ± 0.58
75. PSKPLGIIRLVSNQFPPSHK  0.123 ± 0.29
76. QGLSYFDCSDWLNYLFFKSY  0.126 ± 0.27
77. GRQGYMAYFVMALLLCIFTH  0.128 ± 0.48
78. VRNETSCTAIVFRSE  0.14 ± 0.22
79. HYGAKCGGPRAWGRDTDR  0.156 ± 0.69
80. SCHRPVPSRASSEKILGIAC  0.157 ± 1.4
81. LSVVVDRVLDNCLIGLYNAG  0.174 ± 0.28
82. RYVPVATKSSTGMSYWDIMV  0.194 ± 0.38
83. LVMMTDIANWRLPCYFSNLW  0.201 ± 0.54
84. KIPYVFFGKRTGVSLFRMFD  0.202 ± 0.56
85. CEVSIVSLARYVGREDLFDR  0.213 ± 0.65
86. CGKTMGINAGMCSTNWGGPT  0.263 ± 0.33
87. ISVHHFR  0.282 ± 0.57
88. LKVRLNESIICYAMRVKHIC  0.345 ± 0.36
89. YHWVMTASVCSPGELNYRSN  0.363 ± 0.78
90. QVRRRVGILRLWFEKWVIGR  0.372 ± 0.77
91. YLMMVIRKVFVPCCNG  0.378 ± 0.21
92. VISGVCFSDIFLDVPTLWLW  0.393 ± 0.3
93. SGCGTGKVDVNWGLENAKAG  0.408 ± 0.59
94. QPSGLGAECYM  0.423 ± 1.4
95. CWRLSYGLGVTFNKMLWPWK  0.43 ± 0.56
96. SCACRYSDLVWVINSLRTVA  0.46 ± 0.83
97. VTMNRIV  0.501 ± 0.21
98. TASNDYLDIDPSMDQSRWCG  0.518 ± 0.27
99. SVANGALSRLAYIKRYRVWW  0.522 ± 0.45
100. VFIQMGHELDFQCEE  0.527 ± 0.63
101. VSGLRRSRSWWAFDVQSLLR  0.544 ± 0.55
102. GSRFPFLVVDMCSSELVKR  0.577 ± 0.63
103. LKTGGSPNLVANYMYDRCAG  0.581 ± 0.38
104. RHTGPIMLSWDAKGRGK  0.622 ± 0.44
105. PQGLTSSSMGLTSANHSAA  0.637 ± 0.88
106. GTTVPGFCITKSVKTMGRNQ  0.643 ± 0.39
107. WWFRK  0.654 ± 1.1
108. FKPEKRLGATG  0.694 ± 0.45
109. LHNERRSVISTPYRQSEAGL  0.707 ± 0.43
110. AGLWYNWRECSFHRVVVGYP  0.737 ± 0.55
111. FWSVYKT  0.744 ± 0.27
112. LFETI  0.746 ± 0.71
113. SWMNS  0.759 ± 0.55
114. AVLIRSGCRIRNRRHG  0.782 ± 0.75
115. SYLNPTVMILGFYP  0.825 ± 0.41
116. MLTRLHVSLSCHFYLWRSL  0.838 ± 0.56
117. PMRACHCCFGCTKSLAHDSN  0.912 ± 0.53
118. CSSDFYYLAELNLPFN  0.917 ± 0.43
119. LNRSTDAFWNKIRTG  1.01 ± 0.49
120. LFSYMYLEVDMSESMIRYL  1.02 ± 0.31
121. PLFCNNWSVLEFERRLGDMH  1.03 ± 0.24
122. AVFHRREVRELAHRQPLLPI  1.03 ± 0.66
123. ISVMEFFVISGFTNWVKCFV  1.06 ± 0.31
124. PWNLLGKIVTFV  1.09 ± 0.94
125. EFRMFTLKLR  1.13 ± 0.65
126. LTCEFRGTRPMMYASDPLFY  1.14 ± 0.76
127. GCVGGWSVEFITLGYWSQRG  1.17 ± 0.88
128. SLVMGVYRRQCRGNPRAMSK  1.21 ± 0.44
129. LAYVHTVKVDGPWKHMNVWY  1.22 ± 0.54
130. SSCYDRVLYAPDRRR  1.23 ± 0.45
131. LRVRFKSWDLSITLGVQ  1.26 ± 0.9
132. GQHSFGAECTVQSCGWGCRW  1.33 ± 0.34
133. SWEQMSYASSFISNVGRHKG  1.34 ± 0.2
134. LRITNAPKLVYVSAQEVNSQ  1.47 ± 0.25
135. GSALIE  1.5 ± 0.74
136. AYNLLYN  1.59 ± 0.69
137. RGYLAWLSGDQA  1.68 ± 0.52
138. GNNRCDVIIMVFFK  1.7 ± 0.12
139. VLSWWTTNPSVMENTCCPWS  2.09 ± 0.32
140. RGVLFVAINW  2.47 ± 0.31
141. SSQRGGNPGIMFNWEIVLRG  2.59 ± 0.14
142. VGLLMKTACSWAGSVTDRCM  2.62 ± 0.14
143. IIVGVVNTRDYLYCRNFVYI  2.79 ± 0.1
144. CCDVHGCVGNMLSFTGILLF  3.54 ± 0.076
145. YVSYRIVLGRMPGMKHSRKR  3.6 ± 0.088
146. RQVPGIKCKSFTLYFADITL  3.85 ± 0.1
147. RCHESARKVTSGMCCSGWC  4.12 ± 0.088
148. NELNLYGSEFAFYWVDKLCH  4.13 ± 0.073
149. TLYIYAMEDSGGFEDGGMCI  4.18 ± 0.1
150. VFRPGRSSDCNLSMLVQRVW  4.18 ± 0.088
151. LYFVCIFPYRVRTECSEQSR  4.32 ± 0.095
152. PYPYAISRYVFMVSNSDMFM  4.53 ± 0.054
153. TQVIAPVVCMAIDYCANITV  4.96 ± 0.099
154. HKSILVDVILSHFSSCSRCH  5.3 ± 0.074
155. TTINIRYPIYSVVMCWYRLE  5.513 ± 0.045
156. IQLYIYCNMWKVGGKEWRAW  5.78 ± 0.087
157. NYLGRVLFFYNWFDKQYRSK  5.878 ± 0.048
158. KEDIVLACIGSVKHVRAQWR  5.97 ± 0.081
159. NNAHRSVVWRYLVCFSCDFG  6.454 ± 0.064
160. VCLPSGLFINLGVWYAAQHH  6.51 ± 0.069

In the case of HHVIRVDIMMFVVKSSELYN, the amyloid nucleation score is reported as “inactive”.
In the case of PFQRGIYHWLYILGLVVELP, the amyloid nucleation score is reported as “inactive”.
For WIILFWHYFSKYFQPLIGRS, the amyloid nucleation score was “inactive”.
For IGDKYGYCKYGRYADGQVIS, the amyloid nucleation score was “inactive”.
With IDMGSGTNFSTCKCATLIMI the amyloid nucleation score was “inactive”.
In the case of QLGQAICRSLYNVRSYMQGF, the amyloid nucleation score is reported as “inactive”.
In the case of TIASTGVFNM, the amyloid nucleation score is reported as “inactive”.
In the case of VWTYNLI, the amyloid nucleation score is reported as “inactive”.
With ELKTFTDKIGG the amyloid nucleation score was “inactive”.
In the case of LEFRPRFSSISYHMIMFVGH, the amyloid nucleation score is reported as “inactive”.
